T1: FcγRIIa R (human, UniProt P12318 34-217)
T1 construct: extracellular domain; also called FcgRIIa R type; 2aR
T1 sequence (looked up): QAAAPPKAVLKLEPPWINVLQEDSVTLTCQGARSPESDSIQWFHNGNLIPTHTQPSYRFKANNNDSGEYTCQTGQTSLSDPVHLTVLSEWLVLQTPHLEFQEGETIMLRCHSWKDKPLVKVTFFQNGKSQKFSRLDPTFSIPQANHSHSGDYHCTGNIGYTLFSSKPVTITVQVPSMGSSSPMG

T2: FcγRIIb (human, UniProt P31994 43-217)
T2 construct: extracellular domain; also called FcgRIIb; 2b
T2 sequence (looked up): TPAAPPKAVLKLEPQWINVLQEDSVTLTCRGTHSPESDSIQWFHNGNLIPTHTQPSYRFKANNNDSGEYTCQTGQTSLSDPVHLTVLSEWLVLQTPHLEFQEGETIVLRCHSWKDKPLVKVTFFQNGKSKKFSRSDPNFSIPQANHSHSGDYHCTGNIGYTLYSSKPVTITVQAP

B1: GpH7-A5/GpH7-B3 variant E269_04F/GpL16-k0 (antibody, human IgG1, kappa)
heavy 1: not shown
heavy 2: not shown
light: DIVMTQSPLSLPVTPGEPASISCQASESLVHSNRNTYLHWYLQKPGQSPQLLIYKVSNRFSGVPDRFSGSGSGTDFTLKISRVEAEDVGVYYCSQNTHVPPTFGQGTKVEIERTVAAPSVFIFPPSDEQLKSGTASVVCLLNNFYPREAKVQWKVDNALQSGNSQESVTEQDSKDSTYSLSSTLTLSKADYEKHKVYACEVTHQGLSSPVTKSFNRGEC
notes: heterodimerized anti-glypican-3 IgG1; alteration in one H chain only; also called He Ab
B2: GpH7-A5/GpH7-B3 variant Q295_11K/GpL16-k0 (antibody, human IgG1, kappa)
heavy 1: not shown
heavy 2: not shown
light: B1 light
notes: as for B1
B3: GpH7-A5/GpH7-B3 variant Q295_01G/GpL16-k0 (antibody, human IgG1, kappa)
heavy 1: not shown
heavy 2: not shown
light: B1 light
notes: as for B1
B4: GpH7-A5/GpH7-B3 variant P271_04F/GpL16-k0 (antibody, human IgG1, kappa)
heavy 1: not shown
heavy 2: not shown
light: B1 light
notes: as for B1
B5: GpH7-A5/GpH7-B3 variant Q295_03V/GpL16-k0 (antibody, human IgG1, kappa)
heavy 1: not shown
heavy 2: not shown
light: B1 light
notes: as for B1
B6: GpH7-A5/GpH7-B3 variant P271_15Y/GpL16-k0 (antibody, human IgG1, kappa)
heavy 1: not shown
heavy 2: not shown
light: B1 light
notes: as for B1
B7: GpH7-A5/GpH7-B3 variant Q295_16H/GpL16-k0 (antibody, human IgG1, kappa)
heavy 1: not shown
heavy 2: not shown
light: B1 light
notes: as for B1
B8: GpH7-A5/GpH7-B3 variant E269_20W/GpL16-k0 (antibody, human IgG1, kappa)
heavy 1: not shown
heavy 2: not shown
light: B1 light
notes: as for B1
B9: GpH7-A5/GpH7-B3 variant P271_20W/GpL16-k0 (antibody, human IgG1, kappa)
heavy 1: not shown
heavy 2: not shown
light: B1 light
notes: as for B1
B10: GpH7-A5/GpH7-B3 variant H268_08L/GpL16-k0 (antibody, human IgG1, kappa)
heavy 1: not shown
heavy 2: not shown
light: B1 light
notes: as for B1
B11: GpH7-A5/GpH7-B3 variant E269_15Y/GpL16-k0 (antibody, human IgG1, kappa)
heavy 1: not shown
heavy 2: not shown
light: B1 light
notes: as for B1
B12: GpH7-A5/GpH7-B3 variant S298_02A/GpL16-k0 (antibody, human IgG1, kappa)
heavy 1: not shown
heavy 2: not shown
light: B1 light
notes: heterodimerized anti-glypican-3 IgG1; alteration in one H chain only; also called He Ab; GpH7-A5/GpH7-B3-15-02A/GpL16-k0
B13: GpH7-A5/GpH7-B3 variant E269_08L/GpL16-k0 (antibody, human IgG1, kappa)
heavy 1: not shown
heavy 2: not shown
light: B1 light
notes: as for B1
B14: GpH7-A5/GpH7-B3 variant E269_18N/GpL16-k0 (antibody, human IgG1, kappa)
heavy 1: not shown
heavy 2: not shown
light: B1 light
notes: as for B1
B15: GpH7-A5/GpH7-B3 variant E269_11K/GpL16-k0 (antibody, human IgG1, kappa)
heavy 1: not shown
heavy 2: not shown
light: B1 light
notes: as for B1
B16: GpH7-A5/GpH7-B3 variant E269_14T/GpL16-k0 (antibody, human IgG1, kappa)
heavy 1: not shown
heavy 2: not shown
light: B1 light
notes: as for B1
B17: GpH7-A5/GpH7-B3 variant E269_16H/GpL16-k0 (antibody, human IgG1, kappa)
heavy 1: not shown
heavy 2: not shown
light: B1 light
notes: as for B1
B18: GpH7-A5/GpH7-B3 variant Q295_04F/GpL16-k0 (antibody, human IgG1, kappa)
heavy 1: not shown
heavy 2: not shown
light: B1 light
notes: as for B1
B19: GpH7-A5/GpH7-B3 variant S298_09D/GpL16-k0 (antibody, human IgG1, kappa)
heavy 1: not shown
heavy 2: not shown
light: B1 light
notes: as for B1
B20: GpH7-A5/GpH7-B3 variant S298_05P/GpL16-k0 (antibody, human IgG1, kappa)
heavy 1: not shown
heavy 2: not shown
light: B1 light
notes: as for B1
B21: GpH7-A5/GpH7-B3 variant E269_13S/GpL16-k0 (antibody, human IgG1, kappa)
heavy 1: not shown
heavy 2: not shown
light: B1 light
notes: as for B1
B22: GpH7-A5/GpH7-B3 variant Q295_15Y/GpL16-k0 (antibody, human IgG1, kappa)
heavy 1: not shown
heavy 2: not shown
light: B1 light
notes: as for B1
B23: GpH7-A5/GpH7-B3 variant Q295_13S/GpL16-k0 (antibody, human IgG1, kappa)
heavy 1: not shown
heavy 2: not shown
light: B1 light
notes: as for B1
B24: GpH7-A5/GpH7-B3 variant H268_06M/GpL16-k0 (antibody, human IgG1, kappa)
heavy 1: not shown
heavy 2: not shown
light: B1 light
notes: as for B1
B25: GpH7-A5/GpH7-B3 variant S298_03V/GpL16-k0 (antibody, human IgG1, kappa)
heavy 1: not shown
heavy 2: not shown
light: B1 light
notes: as for B1
B26: GpH7-A5/GpH7-B3 variant E269_07I/GpL16-k0 (antibody, human IgG1, kappa)
heavy 1: not shown
heavy 2: not shown
light: B1 light
notes: as for B1
B27: GpH7-A5/GpH7-B3 variant H268_11K/GpL16-k0 (antibody, human IgG1, kappa)
heavy 1: not shown
heavy 2: not shown
light: B1 light
notes: as for B1
B28: GpH7-A5/GpH7-B3 variant S298_07I/GpL16-k0 (antibody, human IgG1, kappa)
heavy 1: not shown
heavy 2: not shown
light: B1 light
notes: as for B1
B29: GpH7-A5/GpH7-B3 variant S298_01G/GpL16-k0 (antibody, human IgG1, kappa)
heavy 1: not shown
heavy 2: not shown
light: B1 light
notes: as for B1
B30: GpH7-A5/GpH7-B3 variant E269_19Q/GpL16-k0 (antibody, human IgG1, kappa)
heavy 1: not shown
heavy 2: not shown
light: B1 light
notes: as for B1
B31: GpH7-A5/GpH7-B3 variant S298_04F/GpL16-k0 (antibody, human IgG1, kappa)
heavy 1: not shown
heavy 2: not shown
light: B1 light
notes: as for B1
B32: GpH7-A5/GpH7-B3 variant Q295_12R/GpL16-k0 (antibody, human IgG1, kappa)
heavy 1: not shown
heavy 2: not shown
light: B1 light
notes: as for B1
B33: GpH7-A5/GpH7-B3 variant Q295_18N/GpL16-k0 (antibody, human IgG1, kappa)
heavy 1: not shown
heavy 2: not shown
light: B1 light
notes: as for B1
B34: GpH7-A5/GpH7-B3 variant E269_06M/GpL16-k0 (antibody, human IgG1, kappa)
heavy 1: not shown
heavy 2: not shown
light: B1 light
notes: as for B1
B35: GpH7-A5/GpH7-B3 variant Q295_20W/GpL16-k0 (antibody, human IgG1, kappa)
heavy 1: not shown
heavy 2: not shown
light: B1 light
notes: as for B1
B36: GpH7-A5/GpH7-B3 variant E269_12R/GpL16-k0 (antibody, human IgG1, kappa)
heavy 1: not shown
heavy 2: not shown
light: B1 light
notes: as for B1
B37: GpH7-A5/GpH7-B3 variant Q295_05P/GpL16-k0 (antibody, human IgG1, kappa)
heavy 1: not shown
heavy 2: not shown
light: B1 light
notes: as for B1

The binders below were run against T1, FcγRIIa R (assay: SPR (Biacore); He/Con_2aR divided by He/Con_2b (FcγRIIa R over FcγRIIb)).

He_2aR/2b (IIaR/IIb)	Binder
1.29 ratio	B1
1.26 ratio	B2
1.32 ratio	B3
1.28 ratio	B4
1.2 ratio	B5
1.35 ratio	B6
1.3 ratio	B7
1.3 ratio	B8
1.33 ratio	B9
1.25 ratio	B10
1.29 ratio	B11
1.24 ratio	B12
1.33 ratio	B13
1.32 ratio	B14
2.14 ratio	B15
1.3 ratio	B16
1.32 ratio	B17
1.29 ratio	B18
1.4 ratio	B19

He_2aR/2b (IIaR/IIb)	Binder
1.34 ratio	B20
1.28 ratio	B21
1.27 ratio	B22
1.3 ratio	B23
1.23 ratio	B24
1.34 ratio	B25
1.34 ratio	B26
1.21 ratio	B27
1.28 ratio	B28
1.23 ratio	B29
1.31 ratio	B30
1.29 ratio	B31
1.27 ratio	B32
1.27 ratio	B33
1.32 ratio	B34
1.35 ratio	B35
1.39 ratio	B36
1.3 ratio	B37

The binders below were run against T1, FcγRIIa R (assay: SPR (Biacore), captured antibody, FcγR as analyte; relative binding, control GpH7-A5/GpH7-B3/GpL16-k0 = 100).
Procedure: (§1) The heterodimerized antibodies He Abs in which one of the H chains was introduced with an alteration were assayed for their binding activities to each activating FcγR and inhibitory FcγR according to the method described in Example 4. […] The activating FcγRs in FIGS. 26, 27, 28, and 29 are FcγRIa, FcγRIIa (R), FcγRIIa (H), and FcγRIIIa, respectively.
(§2) Analysis of interaction between objective antibody and the FcγR was carried out using Biacore T100 (GE Healthcare). HBS-EP+ (GE Healthcare) was used as the running buffer, and the measurement temperature was set to 25° C. Chips produced by immobilizing the antigen peptide by the amine coupling method to a Series S Sencor Chip CM5 (GE Healthcare), or alternatively, chips produced by allowing preliminarily biotinylated antigen peptides to interact with and immobilize onto a Series S Sensor Chip SA (certified) (GE Healthcare) were used. Antibodies of interest were captured onto an antigen peptide-immobilized chip, and allowed to interact to each FcγR diluted with running buffer. To regenerate and repeatedly use the chip, the antibodies captured on the chip were washed off by reacting 10 mM glycine-HCl, pH 1.5.

He/Con_2aR	Binder
58.2 control = 100	B1
88.9 control = 100	B2
60.9 control = 100	B3
75.9 control = 100	B4
91.2 control = 100	B5
70.7 control = 100	B6
81.3 control = 100	B7
55.5 control = 100	B8
77.3 control = 100	B9
85 control = 100	B10
57.6 control = 100	B11
91.2 control = 100	B12
57.2 control = 100	B13
59.2 control = 100	B14
38.1 control = 100	B15
66 control = 100	B16
50.7 control = 100	B17
83.6 control = 100	B18
67.8 control = 100	B19

He/Con_2aR	Binder
16 control = 100	B20
61.2 control = 100	B21
82.8 control = 100	B22
73.7 control = 100	B23
81 control = 100	B24
86.3 control = 100	B25
58.8 control = 100	B26
100 control = 100	B27
90.1 control = 100	B28
98.8 control = 100	B29
57.8 control = 100	B30
84 control = 100	B31
83 control = 100	B32
82.4 control = 100	B33
61.7 control = 100	B34
60 control = 100	B35
35 control = 100	B36
87.4 control = 100	B37

The binders below were run against T2, FcγRIIb in the same assay as above.
Procedure: as §1, §2

He/Con_2b	Binder
45 control = 100	B1
70.4 control = 100	B2
46 control = 100	B3
59.5 control = 100	B4
75.7 control = 100	B5
52.3 control = 100	B6
62.7 control = 100	B7
42.5 control = 100	B8
58.1 control = 100	B9
67.8 control = 100	B10
44.7 control = 100	B11
73.4 control = 100	B12
42.9 control = 100	B13
44.8 control = 100	B14
17.8 control = 100	B15
50.6 control = 100	B16
38.5 control = 100	B17
64.7 control = 100	B18
48.3 control = 100	B19

He/Con_2b	Binder
11.9 control = 100	B20
47.8 control = 100	B21
65.4 control = 100	B22
56.9 control = 100	B23
65.7 control = 100	B24
64.5 control = 100	B25
43.9 control = 100	B26
83 control = 100	B27
70.6 control = 100	B28
80.1 control = 100	B29
44.3 control = 100	B30
65.4 control = 100	B31
65.2 control = 100	B32
64.9 control = 100	B33
46.7 control = 100	B34
44.4 control = 100	B35
25.2 control = 100	B36
67.5 control = 100	B37

Reference: US20150344570A1 (published 2015)
